Tested on: Escherichia coli TOP10
Experiment: shrunken log2 fold change of peptide-encoding DNA abundance (4.5 h post-induction vs induction); higher = less antimicrobial activity (less host growth inhibition)
Conditions: time post-induction: 4.5 h; library: site-saturation at positions 5, 18, 19, 20
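Note: peptides expressed intracellularly from a pBAD plasmid library in pooled LB shake-flask culture, induced with 0.3% L-arabinose, DNA abundance read by NGS, three biological replicates, DESeq2 with apeglm shrinkage.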

Sequence	shrunken log2 fold change
RRIRYRPPRLPRPRPRPYNCPRP	-0.0167
RRIRVRPPRLPRPRPRPHFEPRP	0.193
RRIRRRPPRLPRPRPRPGPNPRP	0.251
RRIRERPPRLPRPRPRPSEVPRP	-0.12
RRIRMRPPRLPRPRPRPAMFPRP	0.388
RRIRTRPPRLPRPRPRPRYNPRP	-0.712
RRIRSRPPRLPRPRPRPGQYPRP	-0.113
RRIRLRPPRLPRPRPRPKKMPRP	0.126
RRIRARPPRLPRPRPRPMAEPRP	0.238
RRIRTRPPRLPRPRPRPRSFPRP	-0.0927
RRIRMRPPRLPRPRPRPMLYPRP	0.0885
RRIRGRPPRLPRPRPRPKQPPRP	1.08
RRIRKRPPRLPRPRPRPKHNPRP	0.0641
RRIRYRPPRLPRPRPRPHKPPRP	-0.171
RRIRFRPPRLPRPRPRPQQCPRP	-0.181
RRIRYRPPRLPRPRPRPRVHPRP	-0.0416
RRIRPRPPRLPRPRPRPAEMPRP	0.189
RRIRSRPPRLPRPRPRPMNAPRP	0.0215
RRIRTRPPRLPRPRPRPPLIPRP	0.0432
RRIRVRPPRLPRPRPRPNHIPRP	-0.651
RRIRPRPPRLPRPRPRPRNNPRP	-0.228
RRIRTRPPRLPRPRPRPPPNPRP	1.22
RRIRRRPPRLPRPRPRPRAVPRP	0.427
RRIRCRPPRLPRPRPRPFRSPRP	-0.142
RRIRFRPPRLPRPRPRPIRSPRP	-0.0101

Sequence	shrunken log2 fold change
RRIRGRPPRLPRPRPRPQEVPRP	0.00966
RRIRERPPRLPRPRPRPGRQPRP	0.0676
RRIRWRPPRLPRPRPRPESVPRP	0.192
RRIRERPPRLPRPRPRPENSPRP	-0.0336
RRIRRRPPRLPRPRPRPQIMPRP	-0.137
RRIRQRPPRLPRPRPRPAENPRP	0.0325
RRIRARPPRLPRPRPRPSCLPRP	-0.0189
RRIRHRPPRLPRPRPRPCEQPRP	-0.0166
RRIRNRPPRLPRPRPRPYVAPRP	-0.931
RRIRDRPPRLPRPRPRPGQCPRP	0.131
RRIRWRPPRLPRPRPRPYHEPRP	-0.123
RRIRSRPPRLPRPRPRPRFGPRP	0.342
RRIRPRPPRLPRPRPRPYCSPRP	-0.294
RRIRFRPPRLPRPRPRPVYHPRP	-1.19
RRIRSRPPRLPRPRPRPQWCPRP	0.111
RRIRCRPPRLPRPRPRPLGMPRP	-0.433
RRIRLRPPRLPRPRPRPRRVPRP	0.0457
RRIRARPPRLPRPRPRPRCRPRP	0.427
RRIRMRPPRLPRPRPRPGSMPRP	0.668
RRIRTRPPRLPRPRPRPAMHPRP	0.289
RRIRERPPRLPRPRPRPWLSPRP	0.0694
RRIRHRPPRLPRPRPRPHNDPRP	-0.329
RRIRRRPPRLPRPRPRPSCSPRP	-0.163
RRIRKRPPRLPRPRPRPHYLPRP	0.0182
RRIRSRPPRLPRPRPRPQEGPRP	-0.0317

Sequence	shrunken log2 fold change
RRIRNRPPRLPRPRPRPITVPRP	-0.0598
RRIRKRPPRLPRPRPRPGVMPRP	0.895
RRIRQRPPRLPRPRPRPMSTPRP	-0.0212
RRIRERPPRLPRPRPRPMTQPRP	0.00826
RRIRFRPPRLPRPRPRPTVNPRP	2.04
RRIRGRPPRLPRPRPRPYANPRP	0.0266
RRIRCRPPRLPRPRPRPNQCPRP	2.64
RRIRTRPPRLPRPRPRPNWKPRP	-0.0427
RRIRQRPPRLPRPRPRPLMQPRP	0.0776
RRIRGRPPRLPRPRPRPTIYPRP	0.365
RRIRVRPPRLPRPRPRPNLHPRP	-0.239
RRIRCRPPRLPRPRPRPANNPRP	-0.409
RRIRSRPPRLPRPRPRPCIRPRP	-0.416
RRIRMRPPRLPRPRPRPLWMPRP	0.0202
RRIRSRPPRLPRPRPRPEERPRP	0.826
RRIRERPPRLPRPRPRPWLGPRP	-0.247
RRIRVRPPRLPRPRPRPPDEPRP	0.621
RRIRTRPPRLPRPRPRPPLEPRP	0.531
RRIRWRPPRLPRPRPRPIWHPRP	0.126
RRIRERPPRLPRPRPRPTKEPRP	-0.465
RRIRGRPPRLPRPRPRPTMKPRP	0.757
RRIRCRPPRLPRPRPRPTLKPRP	0.017
RRIRRRPPRLPRPRPRPMPYPRP	-0.0473
RRIRFRPPRLPRPRPRPDEDPRP	0.181
RRIRARPPRLPRPRPRPQQDPRP	0.108
